From the supplement of paper PMC9170038

Each sequence was assayed on MS2 coat protein (assay: apparent KD of MS2 coat protein; higher = weaker reporter binding). Conditions: Eterna round: R107; input ligand: none.
Procedure, shortened: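 The designed RNA switches were transcribed on-chip from Illumina sequencing clusters. In 100 mM Tris-HCl pH 7.5, 80 mM KCl and 4 mM MgCl2, without or with constant ligand, they were titrated with SNAP-549-labelled MS2 coat protein from 0.7 or 1.5 nM to 3 µM in twofold steps. Apparent KD is the per-design median of normalised cluster binding-curve fits.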

Sequence	apparent KD of MS2 coat protein [nM]
AUAUAUAUGCGAAGGAGCGGGAAAUAUAUAUAUAUAAUCCUAACAUGAGGAUCACCCAUGUCCCAGGUAGGUCGCGCAUAUAUAU [12.A]	74
ACAUGAGGAUCACCCAUGUAUGGCGCGGAAGGAGCGUGAUUAAGCACAGGUAGGUCGCUGCGUUGAUCGAGCGUUAGCUCGAUAA [SSArg A #9]	19
AACAUGAGGAUCACCCAUGUCGGGCCGGUGCGAGGACCGGUACGGCCGCCACUCGAGACAUGAGGAUCACCCAUGUUGUGCGUGA [Exclusion Tryptophan A GF23]	162
CGGCCCUCACUUGAGGAUCACCCAAGUGAUACCAGCCUGGAAACAGGCCCUUGGCAGCACUAGGUCAUCAAAGAUGACCAAGCCG [TheoAX 28 #OpenEnded #AlternativeMS2]	12.8
ACAUGAGGAUCACCCAUGUGGAGCAGGGUACGAGGACCGGUACGGCCGCCACUCGAGCGUUAUGACGAGUGAAUGGCAACGAUGU [whbob_X-Trypto_A_V1.0]	10.5
UCUUGAGUUUCGGAUACCAGUGUUGUCGAUACAUGAGGAUCACCCAUGUUAGAGGAUGUACACCCUUGGCAGCCGGGUGUGGCGG [tftmullin]	14.5
UGUAUGUGAUUUGAUACCAGACCAGCUGGUGUUAGAUGAGGAUCACCCAUCUAGGUUUGGGUCCCUUGGCAGCAAAUCGCAUACU [SS Theo B #24 Ms13]	18
UGAGAGACCAGAAGGAGCGACAUGAGGAUCACCCAUGUCUCCCGUUAUGGGAGUUCUUUAGGUCAGGUAGGUCGCUGGUCUCUCA [#1 Exclusion - Arginine B Attempt #8 (Inspired by Omei)]	132
AAUCGGGAUGGUCAAGGGUAUGCUAUAGAUACCAGUGCAGAGAAACACCCUUGGCAGCUGUGGAACAUGAGGAUCACCCAUGUAG [Theo A Ex t4]	11.2
UAUAUAGAAGGAAGUCAUAUAGAUGCAGAAGGAGCGUAGGAAACUACAGGUAGGUCGCUGAGGUACAUGAGGAUCACCCAUGUAG [SSArg A #15 Slice of Pi]	32.3
AACGUGAACGUGGUAUACCCGUGUGCCGAAGGAGCGCCCGAAAGGGCAGGUAGGUCGCGGACGACAUGAGGAUCACCCAUGUUUG	73.5
ACGUAAAGCAGAAGGAGCGUCUUAAUUCUACAUGAGGAUCACCCAUGUUUACAUUGAAUAUGACAGGUAGGUCGCUGAAGUACGA [JR_SSArginiB_Sub001]	33.9
AUGCCUAGUGGAAGGAGCGAGGGUCUUCUCAACAUGAGGAUCACCCAUGUUCUUUUACACCCUCAGGUAGGUCGCCAUUGGGACA [Biraanve]	55
ACGUAAUGCAGAAGGAGCGUCGAUCUCAUACAUGAGGAUCACCCAUGUUACAUGGUUGGACGACAGGUAGGUCGCUGAAGUACGA [#06 Exclusion - Arginine B]	20.6
AGAUUCGACACGGCCGCCACUCGUGGAGGAUUACCGAGUGUCGAACAUGAGGAUCACCCAUGUACGAGGACCGGGUGUUGAGUCU [XTryp B #15]	27.3
GCGGUGGUCGGAAGGAGCGACAUGAGGAUCACCCAUGUCUCCCGUUAUGGGAGUUCCUUAGGUCAGGUAGGUCGCCGACUGCCGC [#1 Exclusion - Arginine B Attempt #21 (Inspired by Omei)]	195
UACAUAUGCCGAAGGAGCGCGAGAAGCAAAGCUUCAUUCCUCACAUGAGGAUCACCCAUGUCGCAGGUAGGUCGCGGCAUAUGUU [#15 Exclusion - Arginine B]	21.8
CCUCGGGACCGAAGGAGCGAGAUAACAACAUUGGGUCUCAACACAUGAGGAUCACCCAUGUCUCAGGUAGGUCGCGGUACCAUGG [Exclusion Arginine B GF22]	385
UUUUUCGCGGGUGAUACCAGCAAAGUUGUACUGGUCUGGUACAUGAGGAUCACCCAUGUUUGCCCUUGGCAGCGCUCGGGAGAAG [#22 Exclusion-TheophyllineB]	21

Same assay, conditions: Eterna round: R107; input ligand: theophylline 20 uM

Sequence	apparent KD of MS2 coat protein [nM]
AUAUAUAUGCGAAGGAGCGGGAAAUAUAUAUAUAUAAUCCUAACAUGAGGAUCACCCAUGUCCCAGGUAGGUCGCGCAUAUAUAU [12.A]	88.5
UUAAGAGGAUAUCAAAUUUGAUUUUGUGAUACCAGAAUAAUUUUAUUCCCUUGGCAGCAUGACAUGAGGAUCACCCAUGUGUCUU [SSTheo A #1]	44.3
ACAUGAGGAUCACCCAUGUAUGGCGCGGAAGGAGCGUGAUUAAGCACAGGUAGGUCGCUGCGUUGAUCGAGCGUUAGCUCGAUAA [SSArg A #9]	25.1
UGUAACAUGAGGAUCACCCAUGUGCACGAUACCAGCUUAUUGAUAGGCCCUUGGCAGCGUAUGCGGAAGCUGUAUAAUAUAUAUC [#27 SameState-TheophyllineA]	18.6
UGUGGGUCCGAAGAUACCAGCCAGCACAGCAUGUGUUUAAACAUGAGGAUCACCCAUGUCGGCCCUUGGCAGCUUGGUUUGGACG [theeternabot_exclusion_MS2_Theo_B_7]	19.8
AACAUGAGGAUCACCCAUGUCGGGCCGGUGCGAGGACCGGUACGGCCGCCACUCGAGACAUGAGGAUCACCCAUGUUGUGCGUGA [Exclusion Tryptophan A GF23]	195
CGGCCCUCACUUGAGGAUCACCCAAGUGAUACCAGCCUGGAAACAGGCCCUUGGCAGCACUAGGUCAUCAAAGAUGACCAAGCCG [TheoAX 28 #OpenEnded #AlternativeMS2]	26
AACUGGAAAAGUGAUACCAGAGACAUGAGGAUCACCCAUGUACAUGAGGAUCACCCAUGUCUCCCUUGGCAGCACAAAAGGGAGA [Exclusion Theophylline B Gf11]	37.6
AGUACACGAACGGAUACCAGCCGGACAUGAGGAUCACCCAUGUCCUACCUCUGUUCGGUUGGCCCUUGGCAGCCGUUCGUGUACA [Omei Theo B SS A v8]	590
CAAUUUCGAAUAGAUACCAGCUGUCAUAAACACAUGAGGAUCACCCAUGUGCUUCUCGUCAGCCCUUGGCAGCUAUAACUAGAGC [theeternabot_sameState_MS2_Theo_B_40]	16.5
ACAUGAGGAUCACCCAUGUGGAGCAGGGUACGAGGACCGGUACGGCCGCCACUCGAGCGUUAUGACGAGUGAAUGGCAACGAUGU [whbob_X-Trypto_A_V1.0]	15.9
ACAUGAGGAUCACCCAUGUAAAUCCUCGAUACCAGCCAAAGGAGAGGCCCUUGGCAGCGGAAAGGCCGGGUAUAAAUGUCCGGCC	151
UAUUUUGUGAUGGAUACCAGCAGAGAAAACGUUUAUCCUAACAUGAGGAUCACCCAUGUAUGCCCUUGGCAGCUGUUGUGGGAUA [8.Q]	42
UCUUGAGUUUCGGAUACCAGUGUUGUCGAUACAUGAGGAUCACCCAUGUUAGAGGAUGUACACCCUUGGCAGCCGGGUGUGGCGG [tftmullin]	14.7
UGUAUGUGAUUUGAUACCAGACCAGCUGGUGUUAGAUGAGGAUCACCCAUCUAGGUUUGGGUCCCUUGGCAGCAAAUCGCAUACU [SS Theo B #24 Ms13]	22.1
GCUGUAAGUGCAGAUACCAGCGUGUUAUAUUUCUAAUGACAUGAGGAUCACCCAUGUAAAUGCCCUUGGCAGCUGCACUUACAGC [SSTHB #7]	16.7
UGAGAGACCAGAAGGAGCGACAUGAGGAUCACCCAUGUCUCCCGUUAUGGGAGUUCUUUAGGUCAGGUAGGUCGCUGGUCUCUCA [#1 Exclusion - Arginine B Attempt #8 (Inspired by Omei)]	120
AAUCGGGAUGGUCAAGGGUAUGCUAUAGAUACCAGUGCAGAGAAACACCCUUGGCAGCUGUGGAACAUGAGGAUCACCCAUGUAG [Theo A Ex t4]	22.7
UAUAUAGAAGGAAGUCAUAUAGAUGCAGAAGGAGCGUAGGAAACUACAGGUAGGUCGCUGAGGUACAUGAGGAUCACCCAUGUAG [SSArg A #15 Slice of Pi]	44.7
